Laboratory results reported in PMC3518626 (Current biology : CB, 2012).

Molecular target: the molecule itself

B1: Kip2-EGFP (natural protein, yeast, UniProt P28743 1-706, looked up)
chain: MIQKMSPSLRRPSTRSSSGSSNIPQSPSVRSTSSFSNLTRNSIRSTSNSGSQSISASSTRSNSPLRSVSAKSDPFLHPGRIRIRRSDSINNNSRKNDTYTGSITVTIRPKPRSVGTSRDHVGLKSPRYSQPRSNSHHGSNTFVRDPWFITNDKTIVHEEIGEFKFDHVFASHCTNLEVYERTSKPMIDKLLMGFNATIFAYGMTGSGKTFTMSGNEQELGLIPLSVSYLFTNIMEQSMNGDKKFDVIISYLEIYNERIYDLLESGLEESGSRISTPSRLYMSKSNSNGLGVELKIRDDSQYGVKVIGLTERRCESSEELLRWIAVGDKSRKIGETDYNARSSRSHAIVLIRLTSTNVKNGTSRSSTLSLCDLAGSERATGQQERRKEGSFINKSLLALGTVISKLSADKMNSVGSNIPSPSASGSSSSSGNATNNGTSPSNHIPYRDSKLTRLLQPALSGDSIVTTICTVDTRNDAAAETMNTLRFASRAKNVALHVSKKSIISNGNNDGDKDRTIELLRRQLEEQRRMISELKNRSNIGEPLTKSSNESTYKDIKATGNDGDPNLALMRAENRVLKYKLENCEKLLDKDVVDLQDSEIMEIVEMLPFEVGTLLETKFQGLESQIRQYRKYTQKLEDKIMALEKSGHTAMSLTGCDGTEVIELQKMLERKDKMIEALQSAKRLRDRALKPLINTQQSPHPVVDNDK
stoichiometry N: 2
